Here are results for 1 molecule from US20050123549A1 (IMMUNOGEN, published 2005).

The target in test [1] is T1, Muc1 mucin carrying the CA6 sialoglycotope (human, UniProt P15941 24-1255, sialylated O-linked carbohydrate carrying the CA6 epitope; positions not stated).
T1 construct: whole, on cells; Target of DS6 on CA6-positive human cell lines (flow cytometry) and in their lysates (dot blots, immunoprecipitation); also called CA6 antigen; DS6 antigen
Put plainly: flow cytometry on SW1990 cells, apparent Kd. How it is done: (§1) Human cell lines were obtained from the American Type Culture Collection (ATCC) with the exception of OVCAR5 (Kearse et al., Int. J. Cancer 88(6):866-872 (2000)), OVCAR8 and IGROV1 cells (M. Seiden, Massachusetts General Hospital). All cells were grown in RPMI 1640 supplemented with 4 mM L-glutamine, 50 U/ml penicillin, 50 μg/ml streptomycin (Cambrex Bio Science, Rockland, Me.) and 10% v/v fetal bovine serum (Atlas Biologicals, Fort Collins, Colo.), referred hereafter as culture media. Cells were maintained in a 37° C., 5% CO₂ humidified incubator.
(§2) Cells ([…]) were incubated, on ice for 3-4 h, with serially diluted concentrations of the DS6 antibody prepared in FACS buffer (2% goat serum, RPMI) into 96-well plates. The cells were spun down in a table top centrifuge at 1500 rpm for 5 min at 4° C. After removing the media, the wells were then refilled with 150 μl of FACS buffer. The wash step was then repeated. FITC-labeled goat anti-mouse IgG (Jackson Immunoresearch) was diluted 1:100 to FACS buffer and incubated with the cells for 1 h on ice. The plate was covered in foil to prevent photobleaching of the signal. After two washes, the cells were fixed with 1% formaldehyde and analyzed on a flow cytometer.

Test [2] deals with T1, Muc1 mucin carrying the CA6 …. Nature of the test: competition flow cytometry on WISH cells; competitor 2 nM biotin-muDS6, streptavidin-DTAF. How it is done: To confirm that the huDS6 versions retains the affinity of muDS6, competitive binding experiments were conducted. […] In some cases, the experimentally measured apparent Kd can vary simply because of the secondary reagent used to indirectly detect binding.

Test [3] shares this target. Nature of the test: flow cytometry on BxPC-3 cells, apparent Kd. How it is done: as §1, §2
(In general: In flow cytometry, cells or beads pass a laser one at a time.)

Test [4] has the same target. Nature of the test: flow cytometry on MDA-MB-157 cells, apparent Kd. How it is done:
as §1, §2

The target is the same in test [5]. Put plainly: flow cytometry on KB cells, apparent Kd.
For test [6] the target is unchanged. Nature of the test: flow cytometry on MDA-MB-231 cells, apparent Kd. How it is done:
as §1, §2

Test [7] has the same target. Put plainly: flow cytometry on Caov-4 cells, apparent Kd. How it is done: as §2
Test [8] has the same target. Nature of the test: flow cytometry on Caov-3 cells, apparent Kd.
The target is the same in test [9]. Nature of the test: flow cytometry on MCF7 cells, apparent Kd.
The target is the same in test [10]. Put plainly: flow cytometry on HPAC cells, apparent Kd. How it is done: as §1, §2
For test [11] the target is unchanged. Put plainly: flow cytometry on BT-483 cells, apparent Kd. How it is done:
as §2

Test [12] has the same target. Nature of the test: flow cytometry on BT-549 cells, apparent Kd. How it is done:
as §1, §2

Test [13] has the same target. Put plainly: flow cytometry on Hs766T cells, apparent Kd. How it is done:
as §1, §2

The target is the same in test [14]. Nature of the test: flow cytometry on HeLa cells, apparent Kd.
Test [15] has the same target. Nature of the test: flow cytometry on TOV-21G cells, apparent Kd. How it is done: as §1, §2
Test [16] shares this target. Put plainly: flow cytometry on WISH cells, apparent Kd. How it is done:
as §1, §2

Test [17] shares this target. Put plainly: flow cytometry on Caov-3 cells, apparent Kd. The source holds these as a separate data set.
The target is the same in test [18]. Nature of the test: flow cytometry on KB cells, apparent Kd. This is another data set of the same source.
Test [19] has the same target. Nature of the test: flow cytometry on HeLa cells, apparent Kd. How it is done: as §2
This is another data set of the same source.

For test [20] the target is unchanged. Nature of the test: flow cytometry on BT549 cells, apparent Kd.

B1: murine DS6 anti-CA6 monoclonal antibody (antibody, IgG1, V domains shown)
VH: QAYLQQSGAELVRSGASVKMSCKASGYTFTSYNMHWVKQTPGQGLEWIGYIYPGNGATNYNQKFKGKATLTADPSSSTAYMQISSLTSEDSAVYFCARGDSVPFAYWGQGTLVTVSA
VL: QIVLTQSPAIMSASPGEKVTITCSAHSSVSFMHWFQQKPGTSPKLWIYSTSSLASGVPARFGGSGSGTSYSLTISRMEAEDAATYYCQQRSSFPLTFGAGTKLELKR
notes: Whole murine monoclonal IgG from the DS6 hybridoma (ATCC PTA-4449); the 3' heavy chain cloning primer was BamIgG1 and the light chain primer was kappa; also called DS6 antibody; muDS6
Turning to B1, the Kd in [1] came to 0.368 nM; in test [3] it was 5.26 nM; in [4], 0.197 nM; in test [5], 1.11 nM; in test [6], 1.46 nM; in test [7], 4.04 nM. The Kd was 5.48 nM in test [8]; 2.89 nM in test [9]; 23.5 nM in test [10]; 13.7 nM in [11]; 1.05 nM in test [12]; 2.32 nM in [13]. The Kd in [14] was found to be 0.694 nM; in [15], 0.307 nM; in [16] it was 2.38 nM; in test [17], 5.48 nM; in test [18], 1.11 nM; in [19], 0.694 nM. Further, the Kd in [20] was determined as 1.05 nM. The same molecule registered an EC50 in [2] of 12.2 nM.

By EC50 is commonly meant the concentration giving half of the maximal effect. Higher therefore signals a need for much substance.
